Measured values as given in publication PMC2647301.

Biological target: T1, Y2 I-AniI (Aspergillus nidulans (mitochondrial)?, UniProt P03880 235-488, F247Y;S345Y;F314K;L466K)
T1 sequence: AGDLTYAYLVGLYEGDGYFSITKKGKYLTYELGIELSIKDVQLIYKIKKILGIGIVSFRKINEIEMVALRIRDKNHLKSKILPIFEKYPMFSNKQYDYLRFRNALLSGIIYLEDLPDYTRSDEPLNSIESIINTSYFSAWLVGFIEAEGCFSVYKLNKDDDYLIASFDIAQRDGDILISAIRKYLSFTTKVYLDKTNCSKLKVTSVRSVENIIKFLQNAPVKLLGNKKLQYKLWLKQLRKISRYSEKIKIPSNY
Experiment: X-ray crystallography

B1: Y2 co-crystal I-AniI target duplex (dsDNA)
DNA 1: GCGCGCTGAGGAGGTTTCTCTGTAAAGCGCA
DNA 2: GCGCTTTACAGAGAAACCTCCTCAGCGCGCT
  binding result: binds
